This note sets out measurements from publication PMC3855536.

Substrate in this series: C=C(O[C@@H]1C=C(C(=O)O)C=C[C@H]1O)C(=O)O
The experiment in a line: steady-state kinetics. The class given is biochemical, Thermus thermophilus. To be noted: dehydration of chorismate to 12.

B1: MqnA (TTHA0803) (Thermus thermophilus HB8) (protein)
chain: MRPYVLGLPRYANVAPLHHFLRLEGFRVLHAVPAELNRLLLSGEVGLSLVSSYFYLKHQDSLGLLPDFSVAVLGRVYSVNLFHKGALPHLARVALTTESATSVALLKLLLKEAGAGPRYERREGGLELLSAYDGVLLIGDRAIKAYAALLPEVPETPHALPTRFGEVEVADLSTLWFQRTHLPFVFAVWAYRRENPPPKALVQALREARREGLGRLREVAEAEARRLGVHPLLLQHYLWNFRYHLEEPDRLGLKAFAEALGLPFAPMFYPE
For B1, the Km worked out at 161.6 ± 7.1 µM and the kcat is 1.27 ± .02 s⁻¹.

Usually Km stands for the substrate concentration at which the rate is half of its maximum.
